Patent publication US20130309230A1 (published 2013)

Key:
[1] = molecular target: AA, - MMP-9; assay: SPR; - MMP-9 (uncleaved, masked AA)
[2] = molecular target: AA, + MMP-9; assay: SPR; + MMP-9 (activated AA)

Kd [1]: > 200 nM
Kd [2]: 0.35 nM
B1: VEGF (ligand)
chain: APMAEGGGQNHHEVVKFMDVYQRSYCHPIETLVDIFQEYPDEIEYIFKPSCVPLMRCGGCCNDEGLECVPTEESNITMQIMRIKPHQGQHIGEMSFLQHNKCECRPKKDRARQENPCGPCSERRKHLFVQDPQTCKCSCKNTDSRCKARQLELNERTCRCDKPRR
